Reference: the supplement of paper PMC10065799, “High-throughput profiling of sequence recognition by tyrosine kinases and SH2 domains using bacterial peptide display” (eLife, 2023)

These sequences were tested against MERTK (UniProt Q12866) (assay: phosphorylation enrichment, bacterial display (enrichment ratio); higher = better substrate or ligand; peptides without Tyr show the background).
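Note: 11-residue human phosphosite peptides and single-mutation variants displayed on the E. coli surface, counted by deep sequencing, each peptide's frequency after selection divided by its frequency in the unselected input library; frequency after pTyr selection over input frequency; kinase dosed for 20-30% of maximal phosphorylation in three min.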

Sequence of MERTK (Q12866 whole entry, looked up): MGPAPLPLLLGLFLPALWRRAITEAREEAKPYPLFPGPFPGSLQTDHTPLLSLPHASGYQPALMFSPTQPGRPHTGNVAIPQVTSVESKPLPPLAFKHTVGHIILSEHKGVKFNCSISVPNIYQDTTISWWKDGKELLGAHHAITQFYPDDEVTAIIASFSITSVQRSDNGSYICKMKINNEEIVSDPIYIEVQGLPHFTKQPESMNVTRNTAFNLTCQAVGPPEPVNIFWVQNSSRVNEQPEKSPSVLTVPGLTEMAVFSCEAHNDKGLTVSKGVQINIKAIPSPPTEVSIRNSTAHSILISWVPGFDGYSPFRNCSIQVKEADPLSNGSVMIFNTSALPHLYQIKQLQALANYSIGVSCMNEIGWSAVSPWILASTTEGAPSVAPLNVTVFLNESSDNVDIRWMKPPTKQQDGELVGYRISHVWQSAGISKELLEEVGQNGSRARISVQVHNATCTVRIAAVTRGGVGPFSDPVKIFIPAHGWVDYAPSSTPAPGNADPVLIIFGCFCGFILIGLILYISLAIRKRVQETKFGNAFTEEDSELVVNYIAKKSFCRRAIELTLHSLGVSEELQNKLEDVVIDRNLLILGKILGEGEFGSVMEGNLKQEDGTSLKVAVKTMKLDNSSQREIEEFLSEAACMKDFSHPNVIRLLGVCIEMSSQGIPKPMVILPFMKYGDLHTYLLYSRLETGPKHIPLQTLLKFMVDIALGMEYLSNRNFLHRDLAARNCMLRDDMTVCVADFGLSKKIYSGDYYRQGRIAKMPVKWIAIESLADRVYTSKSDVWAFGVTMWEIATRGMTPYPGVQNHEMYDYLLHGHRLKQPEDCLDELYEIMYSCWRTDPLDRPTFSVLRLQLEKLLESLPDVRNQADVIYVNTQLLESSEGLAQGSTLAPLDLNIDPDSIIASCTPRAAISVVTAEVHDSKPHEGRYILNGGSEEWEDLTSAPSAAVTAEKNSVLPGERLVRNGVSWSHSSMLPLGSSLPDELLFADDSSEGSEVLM

Sequence	phosphorylation enrichment
CTTIHYNSMCN [TP53_Y234_Y236S]	0.42
FEHVGYTTLNR [CHN1_Y148_YF]	0.406
VGTKRYRAPEV [ACVRL1_Y375_M376R]	0.339
PVQAASQKVVA [HBB_Y131_Y131S]	0.396
LEITWYPFDME [RIPOR2_Y316_V320M]	0.608
SPFEVYVDKSQ [FLNA_Y373]	0.388
FLRTGYSIPFG [TGM1_Y370_V372I_YF]	0.753
NTGLDYIKFTW [HRH1_Y386]	0.605
GKFFQYDTWNQ [IGF2_Y116_K120N]	0.588
FGISGYLVDSV [MAP2K3_Y214]	0.459
YEDTLYTVLHR [UNC13D_Y61_A59T]	8.84
GRRNTCFASIA [ACADM_Y352_Y352C_YF]	0.413
HLLRIYYDITD [MMP27_Y307_W304L]	0.88
HLAQRYLIWEC [SCN5A_Y694_R689H]	0.533
EYHRLYEEYTR [PIK3R1_Y467_D464H]	2.48
REGKIYEFNQV [ZNF665_Y162_H157R_YF]	2.64
AQADIYKADFQ [IKBKG_Y308]	0.399
QRPGLYDRPGA [HNRNPH2_Y210_P209L]	0.852
DVMDLYKTLRG [NR3C1_Y30_F29L]	0.431
CVGGFYGGCNE [CTSC_Y352_Y347C]	0.585
RGDSAYHSQRH [ERBB3_Y1132]	0.357
KSIQLYDTPFE [SHB_Y297_G293S_YF]	6.02
PPTYRYERGSR [INPPL1_Y663]	0.465
INASGYRIGPA [ACSM1_Y477]	0.33
SVTCTDSPALN [TP53_Y126_Y126D]	0.351
SNVEQYQAMVT [TPR_Y965]	0.355
ETLLFYGFRRS [POR_Y564_C566Y_YF]	0.631
QLAPQYTYTQG [FLNA_Y1761_A1764T]	1.17
HHIDFYKETTN [FGFR1_Y654_K656E_YF]	0.556

Each sequence was assayed against FGFR1 (UniProt P11362) in the same assay as above.
Sequence of FGFR1 (P11362 whole entry, looked up): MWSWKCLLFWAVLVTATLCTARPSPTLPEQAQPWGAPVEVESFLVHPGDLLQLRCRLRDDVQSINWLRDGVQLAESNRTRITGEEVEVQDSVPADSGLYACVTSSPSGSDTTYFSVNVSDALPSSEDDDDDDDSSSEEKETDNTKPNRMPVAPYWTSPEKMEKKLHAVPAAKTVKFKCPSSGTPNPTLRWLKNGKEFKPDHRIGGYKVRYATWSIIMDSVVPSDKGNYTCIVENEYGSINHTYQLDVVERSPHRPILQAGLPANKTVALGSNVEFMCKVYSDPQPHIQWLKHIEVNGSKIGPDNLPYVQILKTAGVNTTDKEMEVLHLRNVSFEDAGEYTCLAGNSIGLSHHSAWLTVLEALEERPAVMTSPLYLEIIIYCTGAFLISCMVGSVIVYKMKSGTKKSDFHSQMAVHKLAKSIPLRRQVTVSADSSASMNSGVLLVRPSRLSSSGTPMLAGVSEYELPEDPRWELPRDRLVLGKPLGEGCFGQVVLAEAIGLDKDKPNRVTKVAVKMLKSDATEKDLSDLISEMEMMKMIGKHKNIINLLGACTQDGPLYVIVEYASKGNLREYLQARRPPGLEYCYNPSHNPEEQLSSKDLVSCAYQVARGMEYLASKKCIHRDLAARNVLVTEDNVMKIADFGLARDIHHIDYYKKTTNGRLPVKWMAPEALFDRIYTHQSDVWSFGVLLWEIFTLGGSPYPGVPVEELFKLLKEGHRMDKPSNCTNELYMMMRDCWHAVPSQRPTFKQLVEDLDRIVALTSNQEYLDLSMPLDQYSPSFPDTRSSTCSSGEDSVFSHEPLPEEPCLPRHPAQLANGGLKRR

Sequence	phosphorylation enrichment
CTTIHYNSMCN [TP53_Y234_Y236S]	0.486
FEHVGYTTLNR [CHN1_Y148_YF]	0.426
VGTKRYRAPEV [ACVRL1_Y375_M376R]	0.298
PVQAASQKVVA [HBB_Y131_Y131S]	0.477
LEITWYPFDME [RIPOR2_Y316_V320M]	0.698
SPFEVYVDKSQ [FLNA_Y373]	0.493
FLRTGYSIPFG [TGM1_Y370_V372I_YF]	0.486
NTGLDYIKFTW [HRH1_Y386]	1.64
GKFFQYDTWNQ [IGF2_Y116_K120N]	0.643
FGISGYLVDSV [MAP2K3_Y214]	0.478
YEDTLYTVLHR [UNC13D_Y61_A59T]	2.08
GRRNTCFASIA [ACADM_Y352_Y352C_YF]	0.377
HLLRIYYDITD [MMP27_Y307_W304L]	2.49
HLAQRYLIWEC [SCN5A_Y694_R689H]	0.788
EYHRLYEEYTR [PIK3R1_Y467_D464H]	2.52
REGKIYEFNQV [ZNF665_Y162_H157R_YF]	0.46
AQADIYKADFQ [IKBKG_Y308]	0.44
QRPGLYDRPGA [HNRNPH2_Y210_P209L]	0.651
DVMDLYKTLRG [NR3C1_Y30_F29L]	0.585
CVGGFYGGCNE [CTSC_Y352_Y347C]	0.439
RGDSAYHSQRH [ERBB3_Y1132]	0.401
KSIQLYDTPFE [SHB_Y297_G293S_YF]	0.518
PPTYRYERGSR [INPPL1_Y663]	0.56
INASGYRIGPA [ACSM1_Y477]	0.349
SVTCTDSPALN [TP53_Y126_Y126D]	0.491
SNVEQYQAMVT [TPR_Y965]	0.416
ETLLFYGFRRS [POR_Y564_C566Y_YF]	0.58
QLAPQYTYTQG [FLNA_Y1761_A1764T]	0.411
HHIDFYKETTN [FGFR1_Y654_K656E_YF]	1.02
